Numbered stars: 1 amine (or outer) side, 2 acyl side, 3 side chain; on linkers, the order of the positions; unused ones are H or OH. Bridge positions count the residues as written; N and C are the ends. Side chains are listed from the residue outwards. Ends that are not written are not given here. * marks the point of attachment. C20 diacid = O=C(O)CCCCCCCCCCCCCCCCCCC(=O)*; γGlu = O=C(O)[C@H](CCC(=O)[*:2])N[*:1]
T1: human calcitonin receptor (human, UniProt P30988 25-474)
T1 construct: whole, on cells; Used as cell membranes; also called hCTR; hCT
T1 sequence (looked up): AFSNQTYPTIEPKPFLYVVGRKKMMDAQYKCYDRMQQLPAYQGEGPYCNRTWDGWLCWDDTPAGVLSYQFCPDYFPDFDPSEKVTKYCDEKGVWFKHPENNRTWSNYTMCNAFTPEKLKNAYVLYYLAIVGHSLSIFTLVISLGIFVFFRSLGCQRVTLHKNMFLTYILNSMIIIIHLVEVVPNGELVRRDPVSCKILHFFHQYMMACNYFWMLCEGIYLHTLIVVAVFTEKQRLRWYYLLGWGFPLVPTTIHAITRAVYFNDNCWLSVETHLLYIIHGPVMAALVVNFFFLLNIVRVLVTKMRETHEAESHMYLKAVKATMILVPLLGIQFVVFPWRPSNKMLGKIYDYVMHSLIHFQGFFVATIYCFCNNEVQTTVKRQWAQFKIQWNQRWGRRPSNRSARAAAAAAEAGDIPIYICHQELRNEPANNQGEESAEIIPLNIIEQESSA

B1: N^ε1-[(4S)-4-carboxy-4-[[(4S)-4-carboxy-4-(19-carboxynonadecanoylamino)butanoyl]amino]butanoyl]-[Glu14,Arg17,Pro21,Pro27,His34,Glu35]-h-amylin (peptide)
peptide: K([γGlu-γGlu-C20 diacid])CNTATCATQRLAEFLRHSSPNFGAIPSSTNVGHETY-NH2
modifications: disulfide 2-7; N-terminus assumed
SMILES: CC[C@H](C)[C@H](NC(=O)[C@H](C)NC(=O)CNC(=O)[C@H](Cc1ccccc1)NC(=O)[C@H](CC(N)=O)NC(=O)[C@@H]1CCCN1C(=O)[C@H](CO)NC(=O)[C@H](CO)NC(=O)[C@H](Cc1c[nH]cn1)NC(=O)[C@H](CCCNC(=N)N)NC(=O)[C@H](CC(C)C)NC(=O)[C@H](Cc1ccccc1)NC(=O)[C@H](CCC(=O)O)NC(=O)[C@H](C)NC(=O)[C@H](CC(C)C)NC(=O)[C@H](CCCNC(=N)N)NC(=O)[C@H](CCC(N)=O)NC(=O)[C@@H](NC(=O)[C@H](C)NC(=O)[C@@H]1CSSC[C@H](NC(=O)[C@@H](N)CCCCNC(=O)CC[C@H](NC(=O)CC[C@H](NC(=O)CCCCCCCCCCCCCCCCCCC(=O)O)C(=O)O)C(=O)O)C(=O)N[C@@H](CC(N)=O)C(=O)N[C@@H]([C@@H](C)O)C(=O)N[C@@H](C)C(=O)N[C@@H]([C@@H](C)O)C(=O)N1)[C@@H](C)O)C(=O)N1CCC[C@H]1C(=O)N[C@@H](CO)C(=O)N[C@@H](CO)C(=O)N[C@H](C(=O)N[C@@H](CC(N)=O)C(=O)N[C@H](C(=O)NCC(=O)N[C@@H](Cc1c[nH]cn1)C(=O)N[C@@H](CCC(=O)O)C(=O)N[C@H](C(=O)N[C@@H](Cc1ccc(O)cc1)C(N)=O)[C@@H](C)O)C(C)C)[C@@H](C)O
B2: N^ε1-[(4S)-4-carboxy-4-[[(4S)-4-carboxy-4-(19-carboxynonadecanoylamino)butanoyl]amino]butanoyl]-[Glu14,Arg17,Pro21,Pro27,His34]-h-amylin (peptide)
peptide: K([γGlu-γGlu-C20 diacid])CNTATCATQRLAEFLRHSSPNFGAIPSSTNVGHNTY-NH2
modifications: disulfide 2-7; N-terminus assumed
SMILES: CC[C@H](C)[C@H](NC(=O)[C@H](C)NC(=O)CNC(=O)[C@H](Cc1ccccc1)NC(=O)[C@H](CC(N)=O)NC(=O)[C@@H]1CCCN1C(=O)[C@H](CO)NC(=O)[C@H](CO)NC(=O)[C@H](Cc1c[nH]cn1)NC(=O)[C@H](CCCNC(=N)N)NC(=O)[C@H](CC(C)C)NC(=O)[C@H](Cc1ccccc1)NC(=O)[C@H](CCC(=O)O)NC(=O)[C@H](C)NC(=O)[C@H](CC(C)C)NC(=O)[C@H](CCCNC(=N)N)NC(=O)[C@H](CCC(N)=O)NC(=O)[C@@H](NC(=O)[C@H](C)NC(=O)[C@@H]1CSSC[C@H](NC(=O)[C@@H](N)CCCCNC(=O)CC[C@H](NC(=O)CC[C@H](NC(=O)CCCCCCCCCCCCCCCCCCC(=O)O)C(=O)O)C(=O)O)C(=O)N[C@@H](CC(N)=O)C(=O)N[C@@H]([C@@H](C)O)C(=O)N[C@@H](C)C(=O)N[C@@H]([C@@H](C)O)C(=O)N1)[C@@H](C)O)C(=O)N1CCC[C@H]1C(=O)N[C@@H](CO)C(=O)N[C@@H](CO)C(=O)N[C@H](C(=O)N[C@@H](CC(N)=O)C(=O)N[C@H](C(=O)NCC(=O)N[C@@H](Cc1c[nH]cn1)C(=O)N[C@@H](CC(N)=O)C(=O)N[C@H](C(=O)N[C@@H](Cc1ccc(O)cc1)C(N)=O)[C@@H](C)O)C(C)C)[C@@H](C)O
notes: also called compound 87
B3: N^ε1-[(4S)-4-carboxy-4-[[(4S)-4-carboxy-4-(19-carboxynonadecanoylamino)butanoyl]amino]butanoyl]-[Glu14,Arg17,Pro21,Pro27,Pro34,Arg35]-h-amylin (peptide)
peptide: K([γGlu-γGlu-C20 diacid])CNTATCATQRLAEFLRHSSPNFGAIPSSTNVGPRTY-NH2
modifications: disulfide 2-7; N-terminus assumed
SMILES: CC[C@H](C)[C@H](NC(=O)[C@H](C)NC(=O)CNC(=O)[C@H](Cc1ccccc1)NC(=O)[C@H](CC(N)=O)NC(=O)[C@@H]1CCCN1C(=O)[C@H](CO)NC(=O)[C@H](CO)NC(=O)[C@H](Cc1c[nH]cn1)NC(=O)[C@H](CCCNC(=N)N)NC(=O)[C@H](CC(C)C)NC(=O)[C@H](Cc1ccccc1)NC(=O)[C@H](CCC(=O)O)NC(=O)[C@H](C)NC(=O)[C@H](CC(C)C)NC(=O)[C@H](CCCNC(=N)N)NC(=O)[C@H](CCC(N)=O)NC(=O)[C@@H](NC(=O)[C@H](C)NC(=O)[C@@H]1CSSC[C@H](NC(=O)[C@@H](N)CCCCNC(=O)CC[C@H](NC(=O)CC[C@H](NC(=O)CCCCCCCCCCCCCCCCCCC(=O)O)C(=O)O)C(=O)O)C(=O)N[C@@H](CC(N)=O)C(=O)N[C@@H]([C@@H](C)O)C(=O)N[C@@H](C)C(=O)N[C@@H]([C@@H](C)O)C(=O)N1)[C@@H](C)O)C(=O)N1CCC[C@H]1C(=O)N[C@@H](CO)C(=O)N[C@@H](CO)C(=O)N[C@H](C(=O)N[C@@H](CC(N)=O)C(=O)N[C@H](C(=O)NCC(=O)N1CCC[C@H]1C(=O)N[C@@H](CCCNC(=N)N)C(=O)N[C@H](C(=O)N[C@@H](Cc1ccc(O)cc1)C(N)=O)[C@@H](C)O)C(C)C)[C@@H](C)O
notes: also called compound 110
B4: N^ε1-[(4S)-4-carboxy-4-[[(4S)-4-carboxy-4-(19-carboxynonadecanoylamino)butanoyl]amino]butanoyl]-[Glu14,Arg17,Pro21,Pro27,Pro34,Glu35]-h-amylin (peptide)
peptide: K([γGlu-γGlu-C20 diacid])CNTATCATQRLAEFLRHSSPNFGAIPSSTNVGPETY-NH2
modifications: disulfide 2-7; N-terminus assumed
SMILES: CC[C@H](C)[C@H](NC(=O)[C@H](C)NC(=O)CNC(=O)[C@H](Cc1ccccc1)NC(=O)[C@H](CC(N)=O)NC(=O)[C@@H]1CCCN1C(=O)[C@H](CO)NC(=O)[C@H](CO)NC(=O)[C@H](Cc1c[nH]cn1)NC(=O)[C@H](CCCNC(=N)N)NC(=O)[C@H](CC(C)C)NC(=O)[C@H](Cc1ccccc1)NC(=O)[C@H](CCC(=O)O)NC(=O)[C@H](C)NC(=O)[C@H](CC(C)C)NC(=O)[C@H](CCCNC(=N)N)NC(=O)[C@H](CCC(N)=O)NC(=O)[C@@H](NC(=O)[C@H](C)NC(=O)[C@@H]1CSSC[C@H](NC(=O)[C@@H](N)CCCCNC(=O)CC[C@H](NC(=O)CC[C@H](NC(=O)CCCCCCCCCCCCCCCCCCC(=O)O)C(=O)O)C(=O)O)C(=O)N[C@@H](CC(N)=O)C(=O)N[C@@H]([C@@H](C)O)C(=O)N[C@@H](C)C(=O)N[C@@H]([C@@H](C)O)C(=O)N1)[C@@H](C)O)C(=O)N1CCC[C@H]1C(=O)N[C@@H](CO)C(=O)N[C@@H](CO)C(=O)N[C@H](C(=O)N[C@@H](CC(N)=O)C(=O)N[C@H](C(=O)NCC(=O)N1CCC[C@H]1C(=O)N[C@@H](CCC(=O)O)C(=O)N[C@H](C(=O)N[C@@H](Cc1ccc(O)cc1)C(N)=O)[C@@H](C)O)C(C)C)[C@@H](C)O
B5: N^ε1-[(4S)-4-carboxy-4-[[(4S)-4-carboxy-4-(19-carboxynonadecanoylamino)butanoyl]amino]butanoyl]-[His14,Arg17,Pro21,Pro27]-h-amylin (peptide)
peptide: K([γGlu-γGlu-C20 diacid])CNTATCATQRLAHFLRHSSPNFGAIPSSTNVGSNTY-NH2
modifications: disulfide 2-7; N-terminus assumed
SMILES: CC[C@H](C)[C@H](NC(=O)[C@H](C)NC(=O)CNC(=O)[C@H](Cc1ccccc1)NC(=O)[C@H](CC(N)=O)NC(=O)[C@@H]1CCCN1C(=O)[C@H](CO)NC(=O)[C@H](CO)NC(=O)[C@H](Cc1c[nH]cn1)NC(=O)[C@H](CCCNC(=N)N)NC(=O)[C@H](CC(C)C)NC(=O)[C@H](Cc1ccccc1)NC(=O)[C@H](Cc1c[nH]cn1)NC(=O)[C@H](C)NC(=O)[C@H](CC(C)C)NC(=O)[C@H](CCCNC(=N)N)NC(=O)[C@H](CCC(N)=O)NC(=O)[C@@H](NC(=O)[C@H](C)NC(=O)[C@@H]1CSSC[C@H](NC(=O)[C@@H](N)CCCCNC(=O)CC[C@H](NC(=O)CC[C@H](NC(=O)CCCCCCCCCCCCCCCCCCC(=O)O)C(=O)O)C(=O)O)C(=O)N[C@@H](CC(N)=O)C(=O)N[C@@H]([C@@H](C)O)C(=O)N[C@@H](C)C(=O)N[C@@H]([C@@H](C)O)C(=O)N1)[C@@H](C)O)C(=O)N1CCC[C@H]1C(=O)N[C@@H](CO)C(=O)N[C@@H](CO)C(=O)N[C@H](C(=O)N[C@@H](CC(N)=O)C(=O)N[C@H](C(=O)NCC(=O)N[C@@H](CO)C(=O)N[C@@H](CC(N)=O)C(=O)N[C@H](C(=O)N[C@@H](Cc1ccc(O)cc1)C(N)=O)[C@@H](C)O)C(C)C)[C@@H](C)O
notes: also called compound 92
B6: N^ε1N^ε1-[(4S)-4-carboxy-4-(19-carboxynonadecanoylamino)butanoyl]-[His14,Arg17,Pro21,Pro27,Pro34]-h-amylin (peptide)
peptide: K([γGlu-C20 diacid])CNTATCATQRLAHFLRHSSPNFGAIPSSTNVGPNTY-NH2
modifications: disulfide 2-7; N-terminus assumed
SMILES: CC[C@H](C)[C@H](NC(=O)[C@H](C)NC(=O)CNC(=O)[C@H](Cc1ccccc1)NC(=O)[C@H](CC(N)=O)NC(=O)[C@@H]1CCCN1C(=O)[C@H](CO)NC(=O)[C@H](CO)NC(=O)[C@H](Cc1c[nH]cn1)NC(=O)[C@H](CCCNC(=N)N)NC(=O)[C@H](CC(C)C)NC(=O)[C@H](Cc1ccccc1)NC(=O)[C@H](Cc1c[nH]cn1)NC(=O)[C@H](C)NC(=O)[C@H](CC(C)C)NC(=O)[C@H](CCCNC(=N)N)NC(=O)[C@H](CCC(N)=O)NC(=O)[C@@H](NC(=O)[C@H](C)NC(=O)[C@@H]1CSSC[C@H](NC(=O)[C@@H](N)CCCCNC(=O)CC[C@H](NC(=O)CCCCCCCCCCCCCCCCCCC(=O)O)C(=O)O)C(=O)N[C@@H](CC(N)=O)C(=O)N[C@@H]([C@@H](C)O)C(=O)N[C@@H](C)C(=O)N[C@@H]([C@@H](C)O)C(=O)N1)[C@@H](C)O)C(=O)N1CCC[C@H]1C(=O)N[C@@H](CO)C(=O)N[C@@H](CO)C(=O)N[C@H](C(=O)N[C@@H](CC(N)=O)C(=O)N[C@H](C(=O)NCC(=O)N1CCC[C@H]1C(=O)N[C@@H](CC(N)=O)C(=O)N[C@H](C(=O)N[C@@H](Cc1ccc(O)cc1)C(N)=O)[C@@H](C)O)C(C)C)[C@@H](C)O
notes: also called compound 67

Each binder was assayed against T1, human calcitonin receptor (assay: ratio of hCTR IC50 to hAmylin-R IC50 (reference: human amylin receptor)).
In short: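 Competition binding by SPA with cell membranes (35 ng/μL) and SPA beads in 50 mM Hepes pH 7.4 with 1 mM CaCl2, 5 mM MgCl2, 0.1% OA and 0.02% Tween20. Incubated 120 min at 25 °C with shaking, then counted.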
With B1 the “Ratio hCT/hAmylin binding” value was 29.1. With B2 the “Ratio hCT/hAmylin binding” value was 35.6. With B3 the “Ratio hCT/hAmylin binding” value was 53.6. B4 was tested, and the “Ratio hCT/hAmylin binding” value was 17.6. With B5 the “Ratio hCT/hAmylin binding” value was 145. For B6, the “Ratio hCT/hAmylin binding” value was 51.6.

What follows are binders tested against T1, human calcitonin receptor (assay: SPA competition on BHK cell membranes, 125I-calcitonin as radioligand (Assay VII)).
In short: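 BHK hCTR membranes 35 ng/μL + SPA beads 0.05 mg/well; buffer 50 mM Hepes pH 7.4, 1 mM CaCl2, 5 mM MgCl₂, 0.1% OA, 0.02% Tween20. 120 min, 25° C., shaking. Scintillation count; IC50 by one-site binding competition.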
B1 was tested, and the IC50 was 15.2 nM. For B2, the IC50 was 22.5 nM. In the case of B3, the IC50 is reported as 17.5 nM. B4 was tested, and the IC50 was 2.13 nM. B5 was tested, and the IC50 was 26 nM. In the case of B6, the IC50 is reported as 4.63 nM.

Source: patent US20140087995A1 (published 2014)
